Laboratory results taken from patent US20220306695A1, “COMPSTATIN ANALOGUES AND THEIR MEDICAL USES” (priority 2019, published 2022).
Positions of bridges follow the written chain, without caps; N, C: chain ends. Non-standard residues stand in square brackets, D forms with d. Trp(1-Me) = Cn1cc(C[C@H](N)C(=O)O)c2ccccc21; 1Nal = N[C@@H](Cc1cccc2ccccc12)C(=O)O; 2Nal = N[C@@H](Cc1ccc2ccccc2c1)C(=O)O; Sar = CNCC(=O)O

B1: Compound 72 (peptide)
peptide: Ac-FCI[Trp(1-Me)]QDW[Sar]EHRCTGAES-NH2
modifications: disulfide 2-12
SMILES: CC[C@H](C)[C@@H]1NC(=O)[C@@H](NC(=O)[C@H](Cc2ccccc2)NC(C)=O)CSSC[C@@H](C(=O)N[C@H](C(=O)NCC(=O)N[C@@H](C)C(=O)N[C@@H](CCC(=O)O)C(=O)N[C@@H](CO)C(N)=O)[C@@H](C)O)NC(=O)[C@H](CCCNC(=N)N)NC(=O)[C@H](Cc2c[nH]cn2)NC(=O)[C@H](CCC(=O)O)NC(=O)CN(C)C(=O)[C@H](Cc2c[nH]c3ccccc23)NC(=O)[C@H](CC(=O)O)NC(=O)[C@H](CCC(N)=O)NC(=O)[C@H](Cc2cn(C)c3ccccc23)NC1=O
B2: Compound 69 (peptide)
peptide: Ac-YCI[Trp(1-Me)]QDWGEHRCTESGA-NH2
modifications: disulfide 2-12
SMILES: CC[C@H](C)[C@@H]1NC(=O)[C@@H](NC(=O)[C@H](Cc2ccc(O)cc2)NC(C)=O)CSSC[C@@H](C(=O)N[C@H](C(=O)N[C@@H](CCC(=O)O)C(=O)N[C@@H](CO)C(=O)NCC(=O)N[C@@H](C)C(N)=O)[C@@H](C)O)NC(=O)[C@H](CCCNC(=N)N)NC(=O)[C@H](Cc2c[nH]cn2)NC(=O)[C@H](CCC(=O)O)NC(=O)CNC(=O)[C@H](Cc2c[nH]c3ccccc23)NC(=O)[C@H](CC(=O)O)NC(=O)[C@H](CCC(N)=O)NC(=O)[C@H](Cc2cn(C)c3ccccc23)NC1=O
B3: Compound 65 (peptide)
peptide: Ac-YCI[2Nal]QDWGEHRCTGAES-NH2
modifications: disulfide 2-12
SMILES: CC[C@H](C)[C@@H]1NC(=O)[C@@H](NC(=O)[C@H](Cc2ccc(O)cc2)NC(C)=O)CSSC[C@@H](C(=O)N[C@H](C(=O)NCC(=O)N[C@@H](C)C(=O)N[C@@H](CCC(=O)O)C(=O)N[C@@H](CO)C(N)=O)[C@@H](C)O)NC(=O)[C@H](CCCNC(=N)N)NC(=O)[C@H](Cc2c[nH]cn2)NC(=O)[C@H](CCC(=O)O)NC(=O)CNC(=O)[C@H](Cc2c[nH]c3ccccc23)NC(=O)[C@H](CC(=O)O)NC(=O)[C@H](CCC(N)=O)NC(=O)[C@H](Cc2ccc3ccccc3c2)NC1=O
B4: Compound 57 (peptide)
peptide: Ac-EGSAFCI[Trp(1-Me)]QDWGEHRCTE-NH2
modifications: disulfide 6-16
SMILES: CC[C@H](C)[C@@H]1NC(=O)[C@@H](NC(=O)[C@H](Cc2ccccc2)NC(=O)[C@H](C)NC(=O)[C@H](CO)NC(=O)CNC(=O)[C@H](CCC(=O)O)NC(C)=O)CSSC[C@@H](C(=O)N[C@H](C(=O)N[C@@H](CCC(=O)O)C(N)=O)[C@@H](C)O)NC(=O)[C@H](CCCNC(=N)N)NC(=O)[C@H](Cc2c[nH]cn2)NC(=O)[C@H](CCC(=O)O)NC(=O)CNC(=O)[C@H](Cc2c[nH]c3ccccc23)NC(=O)[C@H](CC(=O)O)NC(=O)[C@H](CCC(N)=O)NC(=O)[C@H](Cc2cn(C)c3ccccc23)NC1=O
B5: Compound 68 (peptide)
peptide: Ac-YCI[Trp(1-Me)]QDWGEHRCTEAGS-NH2
modifications: disulfide 2-12
SMILES: CC[C@H](C)[C@@H]1NC(=O)[C@@H](NC(=O)[C@H](Cc2ccc(O)cc2)NC(C)=O)CSSC[C@@H](C(=O)N[C@H](C(=O)N[C@@H](CCC(=O)O)C(=O)N[C@@H](C)C(=O)NCC(=O)N[C@@H](CO)C(N)=O)[C@@H](C)O)NC(=O)[C@H](CCCNC(=N)N)NC(=O)[C@H](Cc2c[nH]cn2)NC(=O)[C@H](CCC(=O)O)NC(=O)CNC(=O)[C@H](Cc2c[nH]c3ccccc23)NC(=O)[C@H](CC(=O)O)NC(=O)[C@H](CCC(N)=O)NC(=O)[C@H](Cc2cn(C)c3ccccc23)NC1=O
B6: Compound 71 (peptide)
peptide: Ac-SEYCI[Trp(1-Me)]QDWGEHRC[Sar]EA-NH2
modifications: disulfide 4-14
SMILES: CC[C@H](C)[C@@H]1NC(=O)[C@@H](NC(=O)[C@H](Cc2ccc(O)cc2)NC(=O)[C@H](CCC(=O)O)NC(=O)[C@H](CO)NC(C)=O)CSSC[C@@H](C(=O)N(C)CC(=O)N[C@@H](CCC(=O)O)C(=O)N[C@@H](C)C(N)=O)NC(=O)[C@H](CCCNC(=N)N)NC(=O)[C@H](Cc2c[nH]cn2)NC(=O)[C@H](CCC(=O)O)NC(=O)CNC(=O)[C@H](Cc2c[nH]c3ccccc23)NC(=O)[C@H](CC(=O)O)NC(=O)[C@H](CCC(N)=O)NC(=O)[C@H](Cc2cn(C)c3ccccc23)NC1=O
B7: Compound 52 (peptide)
peptide: Ac-ICI[2Nal]QDWGEHRCTGAES-NH2
modifications: disulfide 2-12
SMILES: CC[C@H](C)[C@H](NC(C)=O)C(=O)N[C@H]1CSSC[C@@H](C(=O)N[C@H](C(=O)NCC(=O)N[C@@H](C)C(=O)N[C@@H](CCC(=O)O)C(=O)N[C@@H](CO)C(N)=O)[C@@H](C)O)NC(=O)[C@H](CCCNC(=N)N)NC(=O)[C@H](Cc2c[nH]cn2)NC(=O)[C@H](CCC(=O)O)NC(=O)CNC(=O)[C@H](Cc2c[nH]c3ccccc23)NC(=O)[C@H](CC(=O)O)NC(=O)[C@H](CCC(N)=O)NC(=O)[C@H](Cc2ccc3ccccc3c2)NC(=O)[C@H]([C@@H](C)CC)NC1=O
B8: Compound 56 (peptide)
peptide: Ac-EGSAFCI[1Nal]QDWGEHRCTE-NH2
modifications: disulfide 6-16
SMILES: CC[C@H](C)[C@@H]1NC(=O)[C@@H](NC(=O)[C@H](Cc2ccccc2)NC(=O)[C@H](C)NC(=O)[C@H](CO)NC(=O)CNC(=O)[C@H](CCC(=O)O)NC(C)=O)CSSC[C@@H](C(=O)N[C@H](C(=O)N[C@@H](CCC(=O)O)C(N)=O)[C@@H](C)O)NC(=O)[C@H](CCCNC(=N)N)NC(=O)[C@H](Cc2c[nH]cn2)NC(=O)[C@H](CCC(=O)O)NC(=O)CNC(=O)[C@H](Cc2c[nH]c3ccccc23)NC(=O)[C@H](CC(=O)O)NC(=O)[C@H](CCC(N)=O)NC(=O)[C@H](Cc2cccc3ccccc23)NC1=O
B9: Compound 70 (peptide)
peptide: Ac-EGSAYCI[Trp(1-Me)]QEWGEHRC[Sar]E-NH2
modifications: disulfide 6-16
SMILES: CC[C@H](C)[C@@H]1NC(=O)[C@@H](NC(=O)[C@H](Cc2ccc(O)cc2)NC(=O)[C@H](C)NC(=O)[C@H](CO)NC(=O)CNC(=O)[C@H](CCC(=O)O)NC(C)=O)CSSC[C@@H](C(=O)N(C)CC(=O)N[C@@H](CCC(=O)O)C(N)=O)NC(=O)[C@H](CCCNC(=N)N)NC(=O)[C@H](Cc2c[nH]cn2)NC(=O)[C@H](CCC(=O)O)NC(=O)CNC(=O)[C@H](Cc2c[nH]c3ccccc23)NC(=O)[C@H](CCC(=O)O)NC(=O)[C@H](CCC(N)=O)NC(=O)[C@H](Cc2cn(C)c3ccccc23)NC1=O
B10: Compound 59 (peptide)
peptide: Ac-EGSAYCI[Trp(1-Me)]QDWGEHRCTE-NH2
modifications: disulfide 6-16
SMILES: CC[C@H](C)[C@@H]1NC(=O)[C@@H](NC(=O)[C@H](Cc2ccc(O)cc2)NC(=O)[C@H](C)NC(=O)[C@H](CO)NC(=O)CNC(=O)[C@H](CCC(=O)O)NC(C)=O)CSSC[C@@H](C(=O)N[C@H](C(=O)N[C@@H](CCC(=O)O)C(N)=O)[C@@H](C)O)NC(=O)[C@H](CCCNC(=N)N)NC(=O)[C@H](Cc2c[nH]cn2)NC(=O)[C@H](CCC(=O)O)NC(=O)CNC(=O)[C@H](Cc2c[nH]c3ccccc23)NC(=O)[C@H](CC(=O)O)NC(=O)[C@H](CCC(N)=O)NC(=O)[C@H](Cc2cn(C)c3ccccc23)NC1=O
B11: Compound 58 (peptide)
peptide: Ac-EGSAFCI[Trp(1-Me)]QDWGEHRCEGE-NH2
modifications: disulfide 6-16
SMILES: CC[C@H](C)[C@@H]1NC(=O)[C@@H](NC(=O)[C@H](Cc2ccccc2)NC(=O)[C@H](C)NC(=O)[C@H](CO)NC(=O)CNC(=O)[C@H](CCC(=O)O)NC(C)=O)CSSC[C@@H](C(=O)N[C@@H](CCC(=O)O)C(=O)NCC(=O)N[C@@H](CCC(=O)O)C(N)=O)NC(=O)[C@H](CCCNC(=N)N)NC(=O)[C@H](Cc2c[nH]cn2)NC(=O)[C@H](CCC(=O)O)NC(=O)CNC(=O)[C@H](Cc2c[nH]c3ccccc23)NC(=O)[C@H](CC(=O)O)NC(=O)[C@H](CCC(N)=O)NC(=O)[C@H](Cc2cn(C)c3ccccc23)NC1=O
B12: Compound 60 (peptide)
peptide: Ac-EGSAFCI[2Nal]QDWGEHRCTE-NH2
modifications: disulfide 6-16
SMILES: CC[C@H](C)[C@@H]1NC(=O)[C@@H](NC(=O)[C@H](Cc2ccccc2)NC(=O)[C@H](C)NC(=O)[C@H](CO)NC(=O)CNC(=O)[C@H](CCC(=O)O)NC(C)=O)CSSC[C@@H](C(=O)N[C@H](C(=O)N[C@@H](CCC(=O)O)C(N)=O)[C@@H](C)O)NC(=O)[C@H](CCCNC(=N)N)NC(=O)[C@H](Cc2c[nH]cn2)NC(=O)[C@H](CCC(=O)O)NC(=O)CNC(=O)[C@H](Cc2c[nH]c3ccccc23)NC(=O)[C@H](CC(=O)O)NC(=O)[C@H](CCC(N)=O)NC(=O)[C@H](Cc2ccc3ccccc3c2)NC1=O
B13: Compound 64 (peptide)
peptide: Ac-FCI[2Nal]QDWGEHRCTGAES-NH2
modifications: disulfide 2-12
SMILES: CC[C@H](C)[C@@H]1NC(=O)[C@@H](NC(=O)[C@H](Cc2ccccc2)NC(C)=O)CSSC[C@@H](C(=O)N[C@H](C(=O)NCC(=O)N[C@@H](C)C(=O)N[C@@H](CCC(=O)O)C(=O)N[C@@H](CO)C(N)=O)[C@@H](C)O)NC(=O)[C@H](CCCNC(=N)N)NC(=O)[C@H](Cc2c[nH]cn2)NC(=O)[C@H](CCC(=O)O)NC(=O)CNC(=O)[C@H](Cc2c[nH]c3ccccc23)NC(=O)[C@H](CC(=O)O)NC(=O)[C@H](CCC(N)=O)NC(=O)[C@H](Cc2ccc3ccccc3c2)NC1=O
B14: Compound 45 (peptide)
peptide: Ac-EGSAFCIWQDWGEHRC[Sar]E-NH2
modifications: disulfide 6-16
SMILES: CC[C@H](C)[C@@H]1NC(=O)[C@@H](NC(=O)[C@H](Cc2ccccc2)NC(=O)[C@H](C)NC(=O)[C@H](CO)NC(=O)CNC(=O)[C@H](CCC(=O)O)NC(C)=O)CSSC[C@@H](C(=O)N(C)CC(=O)N[C@@H](CCC(=O)O)C(N)=O)NC(=O)[C@H](CCCNC(=N)N)NC(=O)[C@H](Cc2c[nH]cn2)NC(=O)[C@H](CCC(=O)O)NC(=O)CNC(=O)[C@H](Cc2c[nH]c3ccccc23)NC(=O)[C@H](CC(=O)O)NC(=O)[C@H](CCC(N)=O)NC(=O)[C@H](Cc2c[nH]c3ccccc23)NC1=O

Target: Human C3 (human, UniProt P01024 23-1663)
Sequence (P01024 23-1663 limits assumed): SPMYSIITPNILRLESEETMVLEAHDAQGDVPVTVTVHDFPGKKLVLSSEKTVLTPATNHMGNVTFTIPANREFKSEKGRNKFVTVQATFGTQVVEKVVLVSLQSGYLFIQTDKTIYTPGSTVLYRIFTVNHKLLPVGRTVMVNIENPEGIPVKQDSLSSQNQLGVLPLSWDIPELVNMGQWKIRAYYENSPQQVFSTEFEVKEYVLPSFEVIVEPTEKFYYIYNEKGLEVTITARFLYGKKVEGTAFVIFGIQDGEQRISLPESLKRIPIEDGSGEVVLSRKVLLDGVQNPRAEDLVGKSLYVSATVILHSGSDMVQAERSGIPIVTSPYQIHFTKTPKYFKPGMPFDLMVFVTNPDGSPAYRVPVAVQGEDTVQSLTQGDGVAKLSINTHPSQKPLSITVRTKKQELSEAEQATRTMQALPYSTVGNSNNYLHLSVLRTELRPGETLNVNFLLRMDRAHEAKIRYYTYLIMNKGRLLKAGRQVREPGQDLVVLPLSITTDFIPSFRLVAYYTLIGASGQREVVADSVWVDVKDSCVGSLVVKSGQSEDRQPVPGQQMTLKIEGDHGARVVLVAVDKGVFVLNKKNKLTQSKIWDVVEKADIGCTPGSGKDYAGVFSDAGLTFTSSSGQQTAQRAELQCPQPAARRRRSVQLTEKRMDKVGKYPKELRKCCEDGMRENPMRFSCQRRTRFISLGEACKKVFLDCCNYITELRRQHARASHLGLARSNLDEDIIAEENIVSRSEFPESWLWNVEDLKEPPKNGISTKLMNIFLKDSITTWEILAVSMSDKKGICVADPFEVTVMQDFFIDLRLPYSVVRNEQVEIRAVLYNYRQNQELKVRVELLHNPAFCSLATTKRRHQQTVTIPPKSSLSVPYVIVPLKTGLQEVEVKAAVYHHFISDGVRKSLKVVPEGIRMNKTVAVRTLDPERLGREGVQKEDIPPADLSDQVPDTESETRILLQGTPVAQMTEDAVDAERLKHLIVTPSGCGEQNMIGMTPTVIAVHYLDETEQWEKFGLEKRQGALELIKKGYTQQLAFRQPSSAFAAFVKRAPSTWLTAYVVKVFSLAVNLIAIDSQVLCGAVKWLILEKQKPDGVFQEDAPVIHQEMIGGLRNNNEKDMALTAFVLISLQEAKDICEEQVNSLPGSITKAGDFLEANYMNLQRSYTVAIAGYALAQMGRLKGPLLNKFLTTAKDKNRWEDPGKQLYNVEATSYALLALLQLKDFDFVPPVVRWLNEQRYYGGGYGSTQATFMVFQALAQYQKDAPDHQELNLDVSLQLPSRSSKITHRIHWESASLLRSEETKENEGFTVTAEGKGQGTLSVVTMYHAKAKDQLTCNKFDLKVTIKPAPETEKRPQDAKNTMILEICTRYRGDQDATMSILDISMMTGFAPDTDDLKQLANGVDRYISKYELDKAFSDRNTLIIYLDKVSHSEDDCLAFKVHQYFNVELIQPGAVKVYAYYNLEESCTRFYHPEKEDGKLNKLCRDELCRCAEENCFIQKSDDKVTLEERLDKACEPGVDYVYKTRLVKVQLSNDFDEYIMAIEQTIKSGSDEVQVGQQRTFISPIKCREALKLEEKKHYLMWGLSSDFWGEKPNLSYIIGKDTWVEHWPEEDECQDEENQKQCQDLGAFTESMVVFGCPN
Test: cell-based or functional assay

Row | Binder | IC50[nM], inhibition of hemolysis [nM]
1 | B1 | < 100
2 | B2 | < 100
3 | B3 | < 100
4 | B4 | < 100
5 | B5 | < 100
6 | B6 | < 100
7 | B7 | < 100
8 | B8 | < 100
9 | B9 | < 100
10 | B10 | < 100
11 | B11 | < 100
12 | B12 | < 100
13 | B13 | < 100
14 | B14 | < 100
